Starred links: 1 amine or outer side, 2 acyl side, 3 side chain; linkers in the order of their positions; H or OH if unused. Non-standard residues stand in square brackets, D forms with d. Groups on a side chain read outwards from the residue. No end group written: not given here. *: point of attachment. G2E3 = linker of 2 Gly and 3 Glu (read GGEEE); C15 diacid = O=C(O)CCCCCCCCCCCCCC(=O)*; γGlu = O=C(O)[C@H](CCC(=O)[*:2])N[*:1]; NMeY = CN[C@@H](Cc1ccc(O)cc1)C(=O)O; AEEA = NCCOCCOCC(=O)O; Aib = CC(C)(N)C(=O)O
How the values were obtained:
[1] = biological target: T1, full-length human GIPR with an N-terminal FLAG tag (human, UniProt P48546 22-466); assay: cell-based or functional assay
T1 sequence (looked up): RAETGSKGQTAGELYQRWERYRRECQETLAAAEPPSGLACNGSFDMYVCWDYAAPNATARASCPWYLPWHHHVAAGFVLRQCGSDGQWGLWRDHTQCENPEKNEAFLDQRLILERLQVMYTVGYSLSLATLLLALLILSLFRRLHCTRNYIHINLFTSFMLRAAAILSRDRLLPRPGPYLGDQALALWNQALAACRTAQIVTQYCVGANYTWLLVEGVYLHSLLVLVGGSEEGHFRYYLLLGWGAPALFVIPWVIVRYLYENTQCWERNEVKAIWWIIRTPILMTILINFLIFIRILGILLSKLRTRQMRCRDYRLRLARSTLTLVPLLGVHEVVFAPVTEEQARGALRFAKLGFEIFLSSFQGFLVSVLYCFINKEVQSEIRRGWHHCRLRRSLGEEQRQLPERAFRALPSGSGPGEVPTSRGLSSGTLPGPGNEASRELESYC

[2] = biological target: full-length human GLP-1R with an N-terminal FLAG tag (human, UniProt P43220 24-463); assay: cell-based or functional assay

Row | Binder | Human GIPR cAMP, HEK293T EC50 [1] [nM] | Human GLP1R cAMP HEK293T EC50 [2] [nM]
1 | [NMeY][Aib]EGTFISDYSIALDRK([AEEA-AEEA-γGlu-C15 diacid])HQ[Aib]NFVNWLLAQS-OH (also: Me-Tyr methyl position not given here) [Compound 37] | 0.0002 | 43.7
2 | [NMeY][Aib]EGTFISDYSIALDR[Aib]K([AEEA-γGlu-γGlu-γGlu-C15 diacid])Q[Aib]NFVNWLLAQK (not fully specified (N-terminus)) [Compound 44] | 0.0004 | 631
3 | Y[Aib]EGTFISDYSIALDR[Aib]AQ[Aib]NFVNWLLAQK([AEEA-γGlu-γGlu-γGlu-C15 diacid]) (not fully specified (residue 1, N-terminus); also: Me-Tyr methyl position not given here) [Compound 43] | 0.0003 | 174
4 | [NMeY][Aib]EGTFISDYSIAK([AEEA-γGlu-γGlu-γGlu-C15 diacid])DR[Aib]AQ[Aib]NFVNWLL[Aib]QK-OH (not fully specified) [Compound 38] | 0.0002 | 525
5 | YXEGTFISDYSIALDKXHQXDFVNWLLAXK (not fully specified; Me-Tyr1; Aib 2,17,20; Km29 = Lys(2OEGgE-C15DA); position 21 printed 'O' in Table 3; C-term OH) [Compound 36] | 0.001 | 25.1
6 | Y[Aib]EGTFISDYSIALDR[Aib]AQ[Aib]NFVNWLLAQK([G2E3-C15 diacid]) (not fully specified (residue 1, N-terminus); also: Me-Tyr methyl position not given here) [Compound 41] | 0.0004 | 112
7 | [NMeY][Aib]EGTFISDYSIALDR[Aib]AQ[Aib]NFVNWLLAQK([G2E3-C15 diacid])PSSGAPPPS-OH [Compound 32] | 0.0002 | 4.73
8 | [NMeY][Aib]EGTFISDYSIAK([AEEA-γGlu-γGlu-γGlu-C15 diacid])DR[Aib]AQ[Aib]NFVNWLL[Aib]QK-NH2 (N-terminus assumed; SMILES CC[C@H](C)[C@H](NC(=O)[C@H](CO)NC(=O)[C@H](Cc1ccc(O)cc1)NC(=O)[C@H](CC(=O)O)NC(=O)[C@H](CO)NC(=O)[C@@H](NC(=O)[C@H](Cc1ccccc1)NC(=O)[C@@H](NC(=O)CNC(=O)[C@H](CCC(=O)O)NC(=O)C(C)(C)NC(=O)[C@H](Cc1ccc(O)cc1)NC)[C@@H](C)O)[C@@H](C)CC)C(=O)N[C@@H](C)C(=O)N[C@@H](CCCCNC(=O)COCCOCCNC(=O)CC[C@H](NC(=O)CC[C@H](NC(=O)CC[C@H](NC(=O)CCCCCCCCCCCCCC(=O)O)C(=O)O)C(=O)O)C(=O)O)C(=O)N[C@@H](CC(=O)O)C(=O)N[C@@H](CCCNC(=N)N)C(=O)NC(C)(C)C(=O)N[C@@H](C)C(=O)N[C@@H](CCC(N)=O)C(=O)NC(C)(C)C(=O)N[C@@H](CC(N)=O)C(=O)N[C@@H](Cc1ccccc1)C(=O)N[C@H](C(=O)N[C@@H](CC(N)=O)C(=O)N[C@@H](Cc1c[nH]c2ccccc12)C(=O)N[C@@H](CC(C)C)C(=O)N[C@@H](CC(C)C)C(=O)NC(C)(C)C(=O)N[C@@H](CCC(N)=O)C(=O)N[C@@H](CCCCN)C(N)=O)C(C)C) [Compound 28] | 0.0001 | 60.3
9 | [NMeY][Aib]EGTFISDYSIALDR[Aib]AQ[Aib]NFVNWLLAK([AEEA-AEEA-γGlu-C15 diacid])K-OH (not fully specified) [Compound 34] | 0.0003 | 117
10 | [NMeY][Aib]EGTFISDYSIALDR[Aib]AQ[Aib]K([AEEA-γGlu-γGlu-γGlu-C15 diacid])FVNWLLA[Aib]K-OH (not fully specified) [Compound 45] | 0.0003 | 48.4
11 | [NMeY][Aib]EGTFISDYSIALDR[Aib]AQ[Aib]K([AEEA-γGlu-γGlu-γGlu-C15 diacid])FVNWLL[Aib]QK-OH (not fully specified) [Compound 40] | 0.0008 | 115
12 | [NMeY][Aib]EGTFISDYSIAK([AEEA-γGlu-γGlu-γGlu-C15 diacid])DR[Aib]AQ[Aib]NFVNWLLA[Aib]K-OH (not fully specified) [Compound 39] | 0.0005 | 398
13 | Me-Y[Aib]EGTFISDYSIALDR[Aib]AQ[Aib]K([AEEA-γGlu-γGlu-γGlu-C15 diacid])FVNWLLAQK-NH2 [Compound 24] | 0.0004 | 16.9
14 | [NMeY][Aib]EGTFTSDYSIYK([AEEA-AEEA-γGlu-C15 diacid])DR[Aib]AQ[Aib]NFVNWLLAQRPSSGAPPPS-OH (not fully specified) [Compound 46] | 0.0002 | 0.144
15 | [NMeY][Aib]EGTFISDYSIALDR[Aib]AQ[Aib]K([AEEA-AEEA-γGlu-γGlu-C15 diacid])FVNWLLAQK-OH (N-terminus assumed; SMILES CC[C@H](C)[C@H](NC(=O)[C@H](CO)NC(=O)[C@H](Cc1ccc(O)cc1)NC(=O)[C@H](CC(=O)O)NC(=O)[C@H](CO)NC(=O)[C@@H](NC(=O)[C@H](Cc1ccccc1)NC(=O)[C@@H](NC(=O)CNC(=O)[C@H](CCC(=O)O)NC(=O)C(C)(C)NC(=O)[C@H](Cc1ccc(O)cc1)NC)[C@@H](C)O)[C@@H](C)CC)C(=O)N[C@@H](C)C(=O)N[C@@H](CC(C)C)C(=O)N[C@@H](CC(=O)O)C(=O)N[C@@H](CCCNC(=N)N)C(=O)NC(C)(C)C(=O)N[C@@H](C)C(=O)N[C@@H](CCC(N)=O)C(=O)NC(C)(C)C(=O)N[C@@H](CCCCNC(=O)COCCOCCNC(=O)COCCOCCNC(=O)CC[C@H](NC(=O)CC[C@H](NC(=O)CCCCCCCCCCCCCC(=O)O)C(=O)O)C(=O)O)C(=O)N[C@@H](Cc1ccccc1)C(=O)N[C@H](C(=O)N[C@@H](CC(N)=O)C(=O)N[C@@H](Cc1c[nH]c2ccccc12)C(=O)N[C@@H](CC(C)C)C(=O)N[C@@H](CC(C)C)C(=O)N[C@@H](C)C(=O)N[C@@H](CCC(N)=O)C(=O)N[C@@H](CCCCN)C(=O)O)C(C)C) [Compound 27] | 0.0006 | 145
16 | [NMeY][Aib]EGTFISDYSIALDR[Aib]K([G2E3-C15 diacid])Q[Aib]NFVNWLLAQK-OH (not fully specified (N-terminus)) [Compound 42] | 0.0006 | 237
17 | [NMeY][Aib]EGTFISDYSIAK([AEEA-AEEA-γGlu-γGlu-C15 diacid])DR[Aib]AQ[Aib]NFVNWLLAQK-OH (N-terminus assumed; SMILES CC[C@H](C)[C@H](NC(=O)[C@H](CO)NC(=O)[C@H](Cc1ccc(O)cc1)NC(=O)[C@H](CC(=O)O)NC(=O)[C@H](CO)NC(=O)[C@@H](NC(=O)[C@H](Cc1ccccc1)NC(=O)[C@@H](NC(=O)CNC(=O)[C@H](CCC(=O)O)NC(=O)C(C)(C)NC(=O)[C@H](Cc1ccc(O)cc1)NC)[C@@H](C)O)[C@@H](C)CC)C(=O)N[C@@H](C)C(=O)N[C@@H](CCCCNC(=O)COCCOCCNC(=O)COCCOCCNC(=O)CC[C@H](NC(=O)CC[C@H](NC(=O)CCCCCCCCCCCCCC(=O)O)C(=O)O)C(=O)O)C(=O)N[C@@H](CC(=O)O)C(=O)N[C@@H](CCCNC(=N)N)C(=O)NC(C)(C)C(=O)N[C@@H](C)C(=O)N[C@@H](CCC(N)=O)C(=O)NC(C)(C)C(=O)N[C@@H](CC(N)=O)C(=O)N[C@@H](Cc1ccccc1)C(=O)N[C@H](C(=O)N[C@@H](CC(N)=O)C(=O)N[C@@H](Cc1c[nH]c2ccccc12)C(=O)N[C@@H](CC(C)C)C(=O)N[C@@H](CC(C)C)C(=O)N[C@@H](C)C(=O)N[C@@H](CCC(N)=O)C(=O)N[C@@H](CCCCN)C(=O)O)C(C)C) [Compound 26] | 0.0003 | 1000
18 | [NMeY][Aib]EGTFISDYSIALDRK([AEEA-AEEA-γGlu-C15 diacid])HQ[Aib]NFVNWLLAQRPSSGAPPPS-OH (also: Me-Tyr methyl position not given here) [Compound 47] | 0.0003 | 110
19 | [NMeY][Aib]EGTFISDYSIALDR[Aib]AQ[Aib]K([G2E3-C15 diacid])FVNWLLAQK-NH2 [Compound 31] | 0.0002 | 0.776
20 | [NMeY][Aib]EGTFISDYSIAK([G2E3-C15 diacid])DR[Aib]AQ[Aib]NFVNWLLAQK-NH2 [Compound 30] | 0.0001 | 442

— US20220227830A1, “QD DOSING OF GIP RECEPTOR AGONIST PEPTIDE COMPOUNDS AND USES THEREOF” (Takeda Pharmaceutical Company Limited, priority 2020, published 2022)
